Data on 26 molecules can be found in patent US20230192818A1.

Substitutions are numbered along the chain they refer to.

This test concerns the target biotinylated SARS-CoV-2 S1 variant B.1.351 (Example 5) (SARS-CoV-2) (UniProt P0DTC2). As to the kind of experiment: phage ELISA screening.

B1: 11-15 (antibody, V domains shown)
VH: QVQLVESGGGVVQPGRSLRLSCAASGFIFSNYGMHWVRQAPGKGLEWVAVISYDGSDKYYADSVKGRFTISRDNSKNTLYLQMNSLRAEDTAVYYCARDDYMYGFEHWGQGTLVTVSS
VL: EMVVPQSPPTVSLSPGERATLSCRASQSVGSYLAWYQQKPGQAPRLLIYDAVNRATGIPARFSGSGSGTDFTLTISSLEPEDFAVYYCQQRSDSITFGGGTKVEIK
The molecule B1 yielded an ELISA of 4.97.

B2: 11-18 (antibody, V domains shown)
VH: QVQLVESGGGVVQPGRSLRLSCAASGFTFGTYAMHWVRQAPGKGLEWVAVISYDGNNKYYADSVKGRFTISRDNSKNTLYLQMNSLRAEDTAVYYCAKTGSGSYYSWFDYWGQGTLVTVSS
VL: EIVLTQSPATLSLSPGERATLSCRASQSLTSYLAWYQQKPGQAPRLLIYDASNRATGIPARFSGSGSGTDFTLTISSLEPEDFAVYYCQQRHYWPPITFGGGTKVEIK
In the case of B2, the ELISA was 3.7.

B3: 11-20 (antibody, V domains shown)
VH: B2 VH with G30D, T31D, N56S, K98S, T99P, G100H, Y105W, S106A, W107A, Y110I
VL: EIVLTQSPATLSLSPGERATLSCRASQSVGSYLAWYQQKPGQAPRLLIYDAVNRATGIPARFSGSGSGTDFTLTISSLEPEDFAVYYCQQRSLWPFGGGTKVEIK
Take B3: the ELISA turned out to be 3.42.

B4: 12-10 (antibody, V domains shown)
VH: B2 VH with T28I, G30R, T31S, N56S, N57I, K98R, G100R, S101G, S106G, W107A
VL: B2 VL with L29V, T30N, Y32D, H92T, Y93D, I97A
As to B4, the ELISA worked out at 19.7.

B5: 12-26 (antibody, V domains shown)
VH: B2 VH with G30S, T31N, N56S, K58E, V64E, T99S, Y105F, W107P
VL: EIVLTQSPATLSLSPGERATLSCRASQSVSTSLAWYQQKPGQAPRLLIYDISNRATGIPARFSGSGSGTDFTLTISSLEPEDFAVYYCQQRRSGLTFGGGTKVEIK
B5: the ELISA was determined as 9.05.

B6: 12-13 (antibody, V domains shown)
VH: B2 VH with T28S, G30S, A33G, N56S, K98R, T99P, G100L, Y105W, Y110P
VL: B2 VL with L29V, T30G, S52V, H92N, Y93S, I97A
Take B6: the ELISA stood at 18.1.

B7: 12-16 (antibody, V domains shown)
VH: QVQLVESGGGVVQPGRSLRLSCAASGFIFRSYAMHWVRQAPGKGLEWVAVISYDGSSKYYADSVKGRFTISRDNSKNTLYLQMNSLRAEDTAVYYCARTLGGSYFAAFDIWGQGTLVTVSS
VL: B2 VL with T30D, A51V, H92R, Y93G, I97V
As to B7, the ELISA stood at 17.

B8: 12-15 (antibody, V domains shown)
VH: B2 VH with T28S, T31G, A33G, N56S, K98R, T99P, G100Y, Y105I
VL: B2 VL with L29V, T30S, Y32H, A51V, Q90V, H92S, Y93D, I97L
In turn, B8 had an ELISA of 17.6.

B9: 12-8 (antibody, V domains shown)
VH: QVQLVESGGGVVQPGRSLRLSCAASGFTFNNYVMHWVRQAPGKGLEWVAVISYDGTNDYYADSVKGRFTISRDNSKNTLYLQMNSLRAEDTAVYYCARGESGSYWGAFDYWGQGTLVTVSS
VL: B2 VL with S28N, L29I, T30G, S31N, Y32H, A51V, H92K, Y93S, I97F
The molecule B9 yielded an ELISA of 21.4.

B10: 12-19 (antibody, V domains shown)
VH: B7 VH with I28A, R30S, S56T, S57Y, K58E, T99S, A106S, A107G, F108M, I110V
VL: B2 VL with L29I, T30S, S31R, A51V, R91S, H92S, Y93N, P96L, I97F
B10 came in with an ELISA of 13.8.

B11: 12-20 (antibody, V domains shown)
VH: B2 VH with T28S, T31G, A33G, N56S, K98R, T99S, G100K, S101G, S106G, W107P
VL: B2 VL with T30G, S31N, A51S, H92N, Y93T, P96G, I97V
In turn, B11 came in with an ELISA of 13.3.

B12: 12-1 (antibody, V domains shown)
VH: B7 VH with I28T, R30S, S31Y, A33G, I51T, S57N, T99P, L100Q
VL: B3 VL with G30S, Y32H, A51V, V52S, S92D, L93T, W94F, P95T
For B12, the ELISA was 29.2.

B13: 12-27 (antibody, V domains shown)
VH: B7 VH with I28S, R30G, S31G, A33G, S57T, T99P, L100R, F105K, A106D
VL: EIVLTQSPATLSLSPGERATLSCRASDTVSSYLAWYQQKPGQAPRLLIYDTSNRATGIPARFSGSGSGTDFTLTISSLEPEDFAVYYCQQRASWPLSFGGGTKVEIK
B13 showed an ELISA of 8.83.

B14: 12-21 (antibody, V domains shown)
VH: B7 VH with I28S, R30G, S31G, A33G, S57N, T99P, L100K, S103N, F105W, A106N
VL: EIVLTQSPATLSLSPGERATLSCRASQSVNSDLAWYQQKPGQAPRLLIYDASNRATGIPARFSGSGSGTDFTLTISSLEPEDFAVYYCQERSLFGGGTKVEIK
Take B14: the ELISA was determined as 11.7.

B15: 12-6 (antibody, V domains shown)
VH: B7 VH with S31N, S57N, T99P, L100R, F105H, A106G
VL: B5 VL with V29L, S30G, T31N, S32Y, I51S, R92N, S93W, G94P, L95Y
The molecule B15 returned an ELISA of 22.4.

B16: 11-16 (antibody, V domains shown)
VH: QVQLVESGGGVVQPGRSLRLSCAASGFTFSDHYMHWVRQAPGKGLEWVAVISYDGSNEYYADSVKGRFTISRDNSKNTLYLQMNSLRAEDTAVYYCAKDLGPAGVDYWGQGTLVTVSS
VL: EIVLTQSPATLSLSPGERATLSCRASQSLGRYLAWYQQKPGQAPRLLIYDSSNRATGIPARFSGSGSGTDFTLTISSLEPEDFAVYYCQQYGDWPETFGGGTKVEIK
B16 had an ELISA of 4.65.

B17: 12-7 (antibody, V domains shown)
VH: B2 VH with G30S, T31I, N56T, K58E, T99S, G100R, S101G, S106G, W107A
VL: B16 VL with R31N, Y91R, G92T, E96P, T97S
B17 had an ELISA of 22.2.

B18: 12-9 (antibody, V domains shown)
VH: B9 VH with N30S, N31S, V33G, N57T, D58E, G99P, E100S, W105L, A107F
VL: B16 VL with L29V, G30S, R31T, Y32S, S51A, S52T, Q90R, Y91R, G92T, E96P
B18 displayed an ELISA of 19.9.

B19: 12-28 (antibody, V domains shown)
VH: QVQLVESGGGVVQPGRSLRLSCAASGFTFSSYAMHWVRQAPGKGLEWVAVISYDGTNEYYADSEKGRFTISRDNSKNTLYLQMNSLRAEDTAVYYCARAHGGSYFSGMDVWGQGTLVTVSS
VL: B16 VL with L29V, G30R, R31H, Y32H, S51A, Y91S, D93S, E96L
The molecule B19 displayed an ELISA of 8.63.

B20: 12-5 (antibody, V domains shown)
VH: QVQLVESGGGVVQPGRSLRLSCAASGFTFSYYGMHWVRQAPGKGLEWVAVTSYDGSNKYYSDSVKGRFTISRDNSKNTLYLQMNSLRAEDTAVYYCARPKSGSYATYFDYWGQGTLVTVSS
VL: B16 VL with S28N, L29V, R31Q, Y32S, S51A, Y91R, G92E, D93N, E96P
B20 came in with an ELISA of 22.8.

B21: 12-22 (antibody, V domains shown)
VH: B20 VH with Y31S, T51I, S56N, N57H, K58E, S61A, A105V, T106S
VL: B16 VL with L29V, G30R, R31H, Y32H, S51A, Q90E, Y91R, G92S, E96I
Regarding B21, the ELISA came out at 10.5.

B22: 12-24 (antibody, V domains shown)
VH: B16 VH with D31N, H32F, Y33P, S56N, E58K, L100H, P102D, A103H, G104Y, V105F
VL: B5 VL with V29F, S30G, T31D, I51A, R92S, S93I, G94P, L95I
The molecule B22 had an ELISA of 9.63.

B23: 12-17 (antibody, V domains shown)
VH: B2 VH with T31S, A33G, N57H, K58E, K98R, T99P, G100H, Y105T, S106A, W107Y
VL: B16 VL with L29V, G30S, R31K, Y32F, S51A, Q89H, Y91H, G92S, E96L
B23: the ELISA was 16.2.

B24: 12-11 (antibody, V domains shown)
VH: B2 VH with T28S, T31G, A33G, N56S, K58E, T99S, G100Y, Y105S, W107Y
VL: B16 VL with L29V, R31S, S51A, S52V, Y91R, G92F, D93T, E96T
B24 gave an ELISA of 18.8.

B25: 12-2 (antibody, V domains shown)
VH: B7 VH with T99P, L100S, G101S, A106P, A107P, I110Y
VL: B13 VL with D27Q, T28S, S30D, Y32R, A92S, S93T, L96P, S97V
The molecule B25 yielded an ELISA of 25.9.

B26: 12-4 (antibody, V domains shown)
VH: B9 VH with N30S, N31Y, V33G, R98K, G99P, E100H, W105R, A107Y
VL: B16 VL with L29V, R31S, Y32H, S51A, Y91I, G92S, D93N, E96L
As for B26, the ELISA turned out to be 23.5.
